Laboratory results reported in US20260109770A1 (REMD BIOTHERAPEUTICS, published 2026).

B1: mouse antibody 46A5C4B1 (MAb 2) (antibody, V domains shown)
VH: EVQLVESGGGLVQPKGSLKLSCAASGFSFNAYAMNWVRQAPGKGLEWVARIRSKSNNYATYYADSVKDRFIISRDDSESMLYLQMNNLKTEDTAMYFCVRGGTYGSTSYFDYWGQGTTLTVSS
VL: DIVMTQAAPSVPVTPGESVSISCRSSKSLLHSNGNTYLYWFLQRPGQSPQLLIYRMSNLASGVPDRFSGSGSGTAFTLRISRVEAEDVGVYYCMQHLEYPFTFGGGTKLEIK
notes: Mouse monoclonal antibody from a hybridoma; also called A2
B2: mouse antibody 41E1C2A5 (MAb 1) (antibody, V domains shown)
VH: EVQLVESGGGLVQPKGSLKLSCAASGFSFNAYAMNWVRQAPGKGLEWVARIRSKSNNYATYYADSVKDRFTISRDDSETMLYLQMNNLKTEDTAMYFCVRGGTYGSSSYFDYWGQGTTLTVSS
VL: DIVMTQAAPSVPVTPGESVSIPCRSSKSLLHSNGNTYLYWFLQRPGQSPQLLIYRMSNLASGVPDRFSGSGSGTAFTLRISRVEAEDVGVYYCMQHLEYPFTFGGGTKLQIR
notes: Mouse monoclonal antibody from a hybridoma; also called A1
B3: mouse antibody 80E4D1F11 (MAb 3) (antibody, V domains shown)
VH: EVQLVESGGGLVQPKGSLKLSCAASGFSFNTYAMNWVRQAPGKGLEWVARIRSKSNNYATYYADSVKARFTISRDDSESMLYLQMNNLKTEDTAMYFCVRGGTYGSTSYFDYWGQGTTLTVSS
VL: DIVMTQAAPSVPVTPGESVSISCRSSKSLLHSNGNTYLYWFLQRPGQSPQLLIYRMSNLASGVPDRFSGSGSGTAFTLRISRVEAEDVGVYYCMQHLEYPFTFGGGTKLEIK
notes: Mouse monoclonal antibody from a hybridoma; also called A3
B4: mouse antibody 504E12D8D12 (MAb 18) (antibody, V domains shown)
VH: EVQLVESGGGLVQPKGSLKLSCAASGFSFNTYAMNWVRQAPGKGLEWVARIRTKSNNYATYYAASVKDRFTISRDDSETMLYLQMNNLKTEDTAMYYCVRGGSGLNYVRYFDVWGTGTTVTVSS
VL: DIVMTQAAPSVFVIPGESVSISCRSSKSLLHSNGNTYLYWFLQRPGQSPQLLIYRMSNLASGVPDRFSGSGSGSAFTLRISRVEAEDVGVYYCMQHLEYPFTFGSGTKLEIK
B5: mouse antibody 538H5G10 (MAb 19) (antibody, V domains shown)
VH: EVQLVESGGGLVQPKGSLKLSCAASGFSFNAYAMNWVRQAPGKGLEWVARIRSKSNNFATYYADSVKDRFTISRDDSESMLYLQMNNLKTEDTAMYYCVRQTYGSRDYAMDYWGQGTSVTVSS
VL: DVVMTQTPLSLPVSLGDRASISCRSSQSLVHSNGNTYLHWYLQKPGQSPRLLIYKVSNRFSGVPDRFSGSGSGTDFTLKISRVEAEDLGVYFCSQNTHVPPYTFGGGTKLEIK
B6: murine-human chimeric (human IgG1) antibody 516D7D12 (antibody, V domains shown)
VH: EVQLVESGGGLVQPKGSLKLSCAASGFSFNTYAMNWVRQAPGKGLEWVARIRTKSNNYATYYADSVKDRFTISRDDSESMLYLQMNNLKTEDTAMYYCVRGGSGLRYVRYFDVWGTGTTVTVSS
VL: DIVMTQATPSVPVTPGESVSISCRSSKSLLHSNGNTYLYWFLQRPGQSPQLLIYRMSNLASGVPERFSGSGSGSAFTLRVSRVEAEDVGVYYCMQHLEYPFTFGSGTKLEIKR
notes: Chimeric antibody derived from murine antibody A10 and human IgG1
B7: murine-human chimeric (human IgG1) antibody 504E12D8D12 (antibody, V domains shown)
VH: EVQLVESGGGLVQPKGSLKLSCAASGFSFNTYAMNWVRQAPGKGLEWVARIRTKSNNYATYYAASVKDRFTISRDDSETMLYLQMNNLKTEDTAMYYCVRGGSGLNYVRYFDVWGTGTTVTVSS
VL: DIVMTQAAPSVFVIPGESVSISCRSSKSLLHSNGNTYLYWFLQRPGQSPQLLIYRMSNLASGVPDRFSGSGSGSAFTLRISRVEAEDVGVYYCMQHLEYPFTFGSGTKLEIKR
notes: Chimeric antibody derived from murine antibody A18 and human IgG1; also called chimeric 504E12D8D12 mAb
B8: murine-human chimeric (human IgG1) antibody 525F2F3F11 (antibody, V domains shown)
VH: EVQLVESGGGLVQPKGSLKLSCAASGFSFNTYAMNWVRQAPGKGLEWVARIRTKSNNYATYYADSVKDRFTISRDDSENMLYLQMNNLKTEDTAMYYCVRGGSGLRYVRYFDVWGTGTTVTVSS
VL: DIVMTQATPSVPVTPGESVSISCRSSKSLLHSNGNTYLYWFLQRPGQSPQLLIYRMSNLASGVPERFSGSGSGSAFTLRVSRVEAEDVGVYYCMQHLEYPFTFGSGTKLEIKR
notes: Chimeric antibody derived from murine antibody A11 and human IgG1
B9: murine-human chimeric (human IgG1) antibody 531B9B1C9 (antibody, V domains shown)
VH: EVQLVESGGGLVQPKGSLKLSCAASGFSFNAYAMNWVRQAPGKGLDWVARIRSKSNNYATYYADSVKDRFTISRDDSESMLYLQMNNLKTEDTAMYFCVRQTYGSRDYAMDYWGQGTSVTVSS
VL: DVVMTQTPLSLPVSLGDQASISCRSSQSLVHSNGNTYLHWYLQKPGQSPKLLIYKVSNRFSGVPDRFSGSGSGTDFTLKISRVEAEDLGVYFCCQSTHVPPYTFGGGTKLEIKR
notes: Chimeric antibody derived from murine antibody A13 and human IgG1
B10: murine-human chimeric (human IgG1) antibody 41E1C2A5 (antibody, V domains shown)
VH: EVQLVESGGGLVQPKGSLKLSCAASGFSFNAYAMNWVRQAPGKGLEWVARIRSKSNNYATYYADSVKDRFTISRDDSETMLYLQMNNLKTEDTAMYFCVRGGTYGSSSYFDYWGQGTTLTVSS
VL: DIVMTQAAPSVPVTPGESVSIPCRSSKSLLHSNGNTYLYWFLQRPGQSPQLLIYRMSNLASGVPDRFSGSGSGTAFTLRISRVEAEDVGVYYCMQHLEYPFTFGGGTKLQIRR
B11: humanized antibody 41E1C2A5-HC3+LC4 (antibody, human IgG1, kappa, V domains shown)
VH: EVQLVESGGGLVQPGGSLKLSCAASGFSFNAYAMNWVRQASGKGLEWVARIRSKSNNYATYYADSVKDRFTISRDDSKNTAYLQMNSLKTEDTAVYFCVRGGTYGSSSYFDYWGQGTTVTVSS
VL: DIVMTQSPLSLPVTPGEPASIPCRSSKSLLHSNGNTYLYWFLQKPGQSPQLLIYRMSNLASGVPDRFSGSGSGTAFTLKISRVEAEDVGVYYCMQHLEYPFTFGGGTKLEIKR
B12: mouse antibody 419C7B3B2 (MAb 4) (antibody, V domains shown)
VH: EVQLQQSGPELVKPGSSVKISCKASGYTFTDYNMDWVKQSHGKSLEWIGAINPNNGGTGYTQKFKGKATLTVDKSSSTAFMELRSLTSEDSAVYYCARRGVYMFAYWGQGTLVTVSA
VL: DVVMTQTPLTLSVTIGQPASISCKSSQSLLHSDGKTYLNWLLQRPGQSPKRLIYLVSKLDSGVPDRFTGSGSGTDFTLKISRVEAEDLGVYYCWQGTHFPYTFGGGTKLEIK
B13: mouse antibody 508C11A12 (MAb 5) (antibody, V domains shown)
VH: EVQLVESGGGLVQPKGSLKLSCAASGFSFNTYAMNWVRQAPGKGLEWVARIRTKSNNYATYYADSVKDRFTISRDDSENILYLQMNNLKTEDTAMYYCVRGGSGIKYVRYFDVWGTGTTVTVSS
VL: DIVMTQAAPSVPVTPGESVSISCRSSKSLLHSNGNTYLYWFLQRPGQSPQLLIYRMSNLASGVPERFSGSGSGSAFTLRISRVEAEDVGVYYCMQHLEYPFTFGSGTKLEIK
B14: mouse antibody 529D10C10 (MAb 6) (antibody, V domains shown)
VH: EVQLVESGGGLVQPRGSLKLSCAASGFSFNAYAMNWVRQAPGKGLEWVARIRTKSNNYATYYADSVKDRFTISRDDSESMLYLQMINLKTEDTAMYYCVRGGSGIRYVKYFDVWGTGTTVTVSS
VL: DIVMTQAAPSVPVTPGESVSISCRSSKSLLHSNGNTYLYWFLQRPGQSPQLLIYRMSNLASGVPERFSGSGSGSAFTLRISRVEAEDVGVYYCMQHLEYPFTFGSGTKLEIK
B15: mouse antibody 536H9D10 (MAb 7) (antibody, V domains shown)
VH: EVQLVESGGGLVQPGGSLKLSCAASGFSFNAYAMNWVRQAPGKGLEWVARIRTKSNNYATYYADSVKDRFTISRDDSESMLYLQMINLKTEDTAMYYCVRGGSGIRYVKYFDVWGTGTTVTVSS
VL: DIVMTQAAPSVPVTPGESVSISCRSSKSLLHSNGNTYLYWFLQRPGQSPQLLIYRMSNLASGVPERFSGSGSGSAFTLRISRVEAEDVGVYYCMQHLEYPFTFGSGTKLEIK
B16: mouse antibody 506G6G5 (MAb 8) (antibody, V domains shown)
VH: EVQLVESGGGLVQPKGSLKLSCAASGFSFNTYAMNWVRQAPGKGLEWVARIRSKSNNYATYYADSVKDRFTISRDDSESMLYLQMNNLKTEDTAMYYCVRGGSGISYVRYFDVWGTGTTVTVSS
VL: DIVMTQAAPSVPVTPGESVSISCRSSKSLLHSNGNTYLYWFLQRPGQSPQLLIYRMSNLASGVPDRFSGSGSGSAFTLRISRVEAEDVGVYYCMQHLEYPFTFGSGTKLEIK
B17: mouse antibody 531A6A3 (MAb 9) (antibody, V domains shown)
VH: EVQLVESGGGLVQPKGSLKLSCAASGFSFKTYAMNWVRQAPGKGLEWVARIRTKSNNYATYYADSVKDRFTISRDDSETMLYLQMNNLKTEDTAMYYCVRGGSGLNYVRYFDVWGTGTTVTVSS
VL: DIVMTQAAPSVPVTPGESVSISCRSSKSLLHSNGNTYLYWFLQRPGQSPQLLIYRMSNLASGVPDRFSGSGSGSAFTLRISRVEAEDVGVYYCMQHLEYPFTFGSGTKLEIK

What was measured:
[1] = target: T1, human C-C chemokine receptor type 8 (hCCR8) (human, UniProt P51685 1-355); experiment: cell-based or functional assay
T1 sequence (P51685 whole entry): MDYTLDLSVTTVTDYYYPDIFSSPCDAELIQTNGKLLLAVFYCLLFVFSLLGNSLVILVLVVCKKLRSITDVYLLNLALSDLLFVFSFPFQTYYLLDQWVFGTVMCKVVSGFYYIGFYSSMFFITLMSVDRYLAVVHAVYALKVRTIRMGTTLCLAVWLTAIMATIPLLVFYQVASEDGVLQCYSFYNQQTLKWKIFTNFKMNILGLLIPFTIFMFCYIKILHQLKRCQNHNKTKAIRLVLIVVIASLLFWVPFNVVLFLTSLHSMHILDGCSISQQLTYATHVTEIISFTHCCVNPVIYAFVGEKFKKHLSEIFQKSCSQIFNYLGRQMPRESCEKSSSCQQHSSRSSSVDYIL

human CCR4 (hCCR4) = target: T2, human CCR4 (hCCR4) (human, UniProt P51679 1-360); experiment: flow cytometry on hCCR4-expressing CHO-K1 cells against parental CHO-K1 cells
T2 construct: whole, on cells
T2 sequence (looked up): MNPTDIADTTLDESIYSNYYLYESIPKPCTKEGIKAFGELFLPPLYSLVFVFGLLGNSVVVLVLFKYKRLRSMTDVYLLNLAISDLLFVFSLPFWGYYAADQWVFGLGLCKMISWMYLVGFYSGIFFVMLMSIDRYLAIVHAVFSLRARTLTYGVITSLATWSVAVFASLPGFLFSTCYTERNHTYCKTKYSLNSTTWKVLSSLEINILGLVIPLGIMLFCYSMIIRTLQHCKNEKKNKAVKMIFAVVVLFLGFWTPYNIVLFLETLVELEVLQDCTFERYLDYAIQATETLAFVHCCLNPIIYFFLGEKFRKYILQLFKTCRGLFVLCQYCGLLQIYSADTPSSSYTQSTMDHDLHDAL
Protocol: The antibodies were further screened for binding to human CCR4 (hCCR4) by flow cytometry. The antibodies were incubated with CHO-K1 cells and hCCR4-expressing CHO-K1 cells for 60 minutes at 4° C. The cells were washed thoroughly with PBS buffer and were then incubated with FITC-conjugated goat anti-mouse IgG Fc antibody or anti-human IgG Fc antibody. Mean Fluorescence Intensity (MFI) of antibody binding on the cells were analyzed by flow cytometry (Table 7).

[2] = target: T1, human C-C chemokine receptor type 8 …; experiment: cell-based or functional assay; remark: listed apart in the source
[3] = target: T1, human C-C chemokine receptor type 8 …; experiment: cell-based or functional assay; remark: listed apart in the source
[4] = target: T1, human C-C chemokine receptor type 8 …; experiment: cell-based or functional assay; remark: listed apart in the source

Row | Binder | IC50 (nM), antagonist activity measured by β-arrestin assay [1] | binding result (human CCR4 (hCCR4)) | inhibition of β-arrestin production (CCR8 CHO-K1 β-arrestin bioassay, 2 nM hCCL1, subclone supernatant) [2] | further results
1 | B1 | 6.24 nM | no binding | ≥ 50% | 
2 | B2 | 4.68 nM | no binding | ≥ 50% | 
3 | B3 | 7.11 nM | no binding | ≥ 50% | 
4 | B4 |  |  | ≥ 50% | 
5 | B5 |  |  | ≥ 50% | 
6 | B6 | 1.51 nM | no binding |  | 
7 | B7 | 0.867 nM | no binding |  | EC50 of ADCC activity (column head prints IC50 (nM)); ADCC/NFAT-reporter-Jurkat bioassay [3]: 0.015 nM
8 | B8 | 1.52 nM | no binding |  | 
9 | B9 | 2.18 nM | no binding |  | EC50 of ADCC activity (column head prints IC50 (nM)); ADCC/NFAT-reporter-Jurkat bioassay [3]: 0.028 nM
10 | B10 |  |  |  | EC50 of ADCC activity (column head prints IC50 (nM)); ADCC/NFAT-reporter-Jurkat bioassay [3]: 0.049 nM
11 | B11 |  |  |  | IC50 (nM), antagonist activity measured by calcium flux assay [4]: 25.3 nM
12 | B12 |  |  | ≥ 50% | 
13 | B13 |  |  | ≥ 50% | 
14 | B14 |  |  | ≥ 50% | 
15 | B15 |  |  | ≥ 50% | 
16 | B16 |  |  | ≥ 50% | 
17 | B17 |  |  | ≥ 50% | 
